Assay results published in patent publication US20230279126A1 (published 2023).

T1: extracellular domain of mouse IL12RB1 (mIL12Rb1 ECD) (mouse, UniProt Q60837 20-565)
T1 construct: The immunogen was a fusion of the ECD with the human IgG1 hinge and Fc; also called mIL12Rb1 ECD antigen
T1 sequence: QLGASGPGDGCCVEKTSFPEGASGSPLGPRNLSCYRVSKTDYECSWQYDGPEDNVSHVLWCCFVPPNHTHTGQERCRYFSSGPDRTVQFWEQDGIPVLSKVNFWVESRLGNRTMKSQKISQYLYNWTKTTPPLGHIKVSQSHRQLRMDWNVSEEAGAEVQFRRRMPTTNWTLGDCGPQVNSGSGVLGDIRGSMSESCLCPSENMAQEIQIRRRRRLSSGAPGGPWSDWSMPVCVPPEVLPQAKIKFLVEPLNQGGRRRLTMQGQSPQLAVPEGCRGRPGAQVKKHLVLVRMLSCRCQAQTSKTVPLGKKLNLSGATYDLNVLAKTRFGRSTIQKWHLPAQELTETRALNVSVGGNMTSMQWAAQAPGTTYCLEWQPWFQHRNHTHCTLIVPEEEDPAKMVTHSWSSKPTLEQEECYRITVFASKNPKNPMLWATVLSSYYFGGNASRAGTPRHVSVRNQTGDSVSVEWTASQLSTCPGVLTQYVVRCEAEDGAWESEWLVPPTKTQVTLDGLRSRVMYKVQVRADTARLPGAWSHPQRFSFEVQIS

T2: extracellular domain of human IL23R (hIL23R ECD) (human, UniProt Q5VWK5 24-355)
T2 construct: The immunogen was an ECD-human IgG1 hinge-Fc fusion
T2 sequence: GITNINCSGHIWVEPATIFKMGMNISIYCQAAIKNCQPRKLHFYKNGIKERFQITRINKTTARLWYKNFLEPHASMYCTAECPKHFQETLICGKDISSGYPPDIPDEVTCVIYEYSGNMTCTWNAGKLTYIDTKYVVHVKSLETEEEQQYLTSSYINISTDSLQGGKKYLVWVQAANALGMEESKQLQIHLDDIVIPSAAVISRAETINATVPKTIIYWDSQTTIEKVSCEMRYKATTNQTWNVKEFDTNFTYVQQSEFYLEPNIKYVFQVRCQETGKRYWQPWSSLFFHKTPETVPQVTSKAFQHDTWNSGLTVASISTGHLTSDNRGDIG

B1: mIL12Rb1_VHH9 (VHH)
VHH: QVQLQESGGGSVQAGGSLRLSCVASGYGYCGYDMSWYRQAPGKEREFVALITSDRSISYEDSVKARFIISRDNAANTGYLDMTRLTPDDTAIYYCKTSAAARESSWCRSRYRVASWGQGTQVTVSS
notes: Phagemid clone with his-tag, periplasmic extract
B2: mIL12Rb1_VHH15 (VHH)
VHH: QVQLQESGGGSVQAGGFLRLSCVASGYGYCGYDMSWYRQVPGKEREFVALITSDRSVSYEDSVKGRFSISRDNAKNTAYLEMNRLTPDDTAVYYCKTSTAARENNWCRSRYRIAYWGQGTQVTVSS
notes: as for B1
B3: mIL12Rb1_VHH20 (VHH)
VHH: QVQLQESGGGSVQAGGSLRLSCVASGYGYCGYDMSWYRQTPGKEREFVALITSDRIASYEDSVKGRFIISRDNAKNTGYLDMTRVTPDDTAIYYCKTSAAARENSWCRSRYRVASWGQGTQVTVSS
notes: as for B1
B4: mIL12Rb1_VHH11 (VHH)
VHH: QVQLQESGGGSVQAGGSLRLSCVASGYSYCGYDMMWYRQAPGKEREFVALITSDYSIRYEDSVEGRFSISRDNAKNTGYLLMSNLTPADTAIYYCKTSTAARESSWCRSRYRVASWGQGTQVTVSS
notes: as for B1
B5: mIL12Rb1_VHH10 (VHH)
VHH: QVQLQESGGGSVQAGGSLRLSCAVSGYDYCGYDVRWYRQAPGKEREFVSGIDSDGSTSYADSVKGRFTISQDNAENTSYLHMFSLKPEDTAMYYCKTESPAGESAWCRNFRGMDYWGKGTQVTVSS
notes: as for B1
B6: hIL23R_VHH6 (VHH)
VHH: QVQLQESGGGLVQPGGSLRLSCAASGYTYCSYDMGWYRQAPGKKRKFVSSINSDGTTSYADSVKGRFTISQDNAKNTVYLQMNSLKPEDTAMYYCKTDPQTRPGKPCADYWGQGTQVTVSS
notes: as for B1
B7: hIL23R_VHH9 (VHH)
VHH: QVQLQESGGGLVQAGGSLRLSCAASGYTYCSYDMSWYRQAPGKERKFVSSINSDGTTSYADSVKGRFTISQDNAKNTVYLQMNSLKPEDTAMYYCKTDPQTRPGKPCADYWGQGTQVTVSS
notes: as for B1
B8: hIL23R_VHH17 (VHH)
VHH: QVQLQESGGGSVQAGGSLRLSCTASGYTFSTMKYMGWFRQAPGKEREGVAAIWIAAGNTYYADSVKGRFTISQDNTKNTVYLQMNSLKPEDTALYYCAAARYGFVPSTWYLPERYNYWGQGTQVTVSS
notes: as for B1
B9: hIL23R_VHH12 (VHH)
VHH: QVQLQESGGGSVQAGGSLRLSCAASGYTSSSRCMGWFRQAPGKEREGVARIYTPTRTTWYADSVKGRFTISQDNAKNTVYLEMASLKPEDTAKYFCAAGASCAVDLFSYWGQGTQVTVSS
notes: as for B1
B10: hIL23R_VHH1 (VHH)
VHH: QVQLQESGGGSVQAGGSLRLSCAASGYTYCSYDMSWYRQAPGKKREFVSAFNSDGTTSYADSVKGRFTISQDKAKNTVYLQMNSLKPEDTAMYYCKTDPHVQSSGGYCPPYWGQGTQVTVSS
notes: as for B1
B11: hIL23R_VHH5 (VHH)
VHH: QVQLQESGGGSVQAGGSLRLSCAASGYTYCSYDMSWYRQAPGKKREFVSAIASDGSTSYADSLKGRFTISQDNAKNTVYLQMNSLKPEDTAMYYCKTDPHVQSSGGYCPPYWGQGTQVTVSS
notes: as for B1
B12: hIL23R_VHH2 (VHH)
VHH: QVQLQESGGGSVQAGGSLRLSCAASGYTYCSYDMSWYRQAPGKKREFVSSFNSDGSTSYADSVKGRFTISQDNAKNTVYLQMNSLKPEDTAMYYCKTDPHADWGAPCGGDYWGQGTQVTVSS
notes: as for B1
B13: hIL23R_VHH4 (VHH)
VHH: QVQLQESGGGSVQAGGSLRLSCAASGSTYCTYDMTWYRQAPGKRREFVSAINSDGSTSYADSVKGRFTISQDNAKNTVYLQMNSLKPEDTAMYYCKTDPNSGWGAPCGGDYWGQGTQVTVSS
notes: as for B1
B14: hIL23R_VHH15 (VHH)
VHH: QVQLQESGGGSVQAGGSLRLSCAASPGTYTSRYMGWFRQAPGKEREGVATIWPAGGNTVYADSVKGRFTISQDGAKKTVYLQMNSLKPEDTAMYYCAAAKYGGTSLAPYTYNYWGQGTQVTVSS
notes: as for B1
B15: hIL23R_VHH3 (VHH)
VHH: QVQLQESGGGSVQAGESLRLSCAASGYTYCTYDMTWYRQAPGKKREFVSGIHSDGTTSYADSVKGRFTISQDNAENTVYLQMNSLKPEDTAMYYCKTDPIATITRRCDSYWGQGTQVTVSS
notes: as for B1
B16: hIL23R_VHH10 (VHH)
VHH: QVQLQESGGGSVQAGGSLKLSCAASGYTYCNYDIAWYRQAPGKERKFVSAIASDGSTSYADSVKGRFTISQDNAKNTVYLQMNSLKPEDTAMYYCKTDPIATMTRRCDPYWGQGTQVTVSS
notes: as for B1
B17: hIL23R_VHH18 (VHH)
VHH: QVQLQESGGGSVQAGGSLRLACAASGYTYCNYDIAWYRQAPGKERKFVSAIASDGSTSYADSVKGRFTISQDNAKNTVYLQMNSLKPEDTAMYYCKTDPIATMTRRCDPYWGQGTQVTVSS
notes: as for B1
B18: hIL23R_VHH7 (VHH)
VHH: QVQLQESGGGSVQAGGSLRLSCAASGYTYCNYDIAWYRQAPGKERKFVSAIASDGITSYADSVKGRFTISQDNAKNTVYLQMNSLKPEDTAMYYCKTDPISTITRICDPYWGQGTQVTVSS
notes: as for B1
B19: hIL23R_VHH16 (VHH)
VHH: QVQLQESGGGSVEAGGALTLSCVASGYTYCNYDIAWYRQAPGKERKFVSAIASDGSTSYADSVKGRFTISQDNAKNTVYLQMNSLKPEDTAMYYCKTDPIATMTRRCDPYWGQGTQVTVSS
notes: as for B1
B20: hIL23R_VHH11 (VHH)
VHH: QVQLQESGGGSVQAGGSLRLSCAASGYTYCSYDMTWYRQAPGKKREFVSAIDSDGSTSYADSVKGRFTISQDNAKNTVYLQMNSLKPEDTAMYYCKTDPIATISRRCDSYWGQGTQVTVSS
notes: as for B1
B21: hIL23R_VHH13 (VHH)
VHH: QVQLQESGGGSVQAGGSLRLSCAASGYTYCSYDMKWYRQAPGKKREFVSAIDSDGSTSYADSVKGRFTISQDNAKNTVYLQMNSLKPEDTAMYYCKTEGTIPVGVCPNYWGQGTQVTVSS
notes: as for B1
B22: hIL23R_VHH14 (VHH)
VHH: QVQLQESGGGLVQPGGSLRLSCAASGYTYCSYDMKWYRQAPGKKREFVSAIDSDGSTSYADSVKGRFTISQDNAKNTVYLQMNSLKPEDTAMYYCKTEGTVPVGVCPNYWGQGTQVTVSS
notes: as for B1
B23: hIL23R_VHH8 (VHH)
VHH: QVQLQESGGDSVQAGGSLRLSCAASGYTYCSYDMKWYRQAPGKEREFVSGIDSDGSISYADSVKGRFTISQDNAKNTVYLQMNSLKPEDTAMYYCKTEGTIPVGACPNYWGQGTQVTVSS
notes: as for B1
B24: hIL23R_VHH19 (VHH)
VHH: QVQLQESGGGSVQAGGSLRLSCAASGYTSCSYDMSWYRQAPGKKREFVSAIHSDGTTSYADSMKGRFTISQDNAKNTVYLQMNSLKPEDTAMYYCKTDPNYSDHVCPPYWGRGTQVTVSS
notes: as for B1

Target: T1, extracellular domain of mouse IL12RB1 …
Assay: periplasmic extract ELISA (PE-ELISA) of phage clones, colorimetric
Procedure, shortened: (§1)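 After multiple rounds of biopanning on the human or mouse extracellular domain, individual phage clones were screened for selective binding by colorimetric periplasmic extract ELISA in 96-well plates. The library was built from camels given human and then mouse receptor extracellular domain–human IgG1 hinge–Fc fusion proteins. Their blood RNA was transcribed, and the roughly 400 bp VHH fragment was placed in frame with a his-tag in a phagemid in E. coli.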

Binder	binding result
B1	binds
B2	binds
B3	binds
B4	binds
B5	binds

Target: T2, extracellular domain of human IL23R …
Assay: as above
Procedure, shortened: as §1

Binder	binding result
B6	binds
B7	binds
B8	binds
B9	binds
B10	binds
B11	binds
B12	binds
B13	binds
B14	binds
B15	binds
B16	binds
B17	binds
B18	binds
B19	binds
B20	binds
B21	binds
B22	binds
B23	binds
B24	binds
